{
  "source": "patent US20170081647A1",
  "about": "“GENETIC DETECTION PLATFORM” (Pharmozyme, Inc., priority 2014, published 2017)",
  "molecules": {"B1": {"name": "Bio-HIS-ABS-Taq polymerase (protein)", "chain": "MASSLRQILDSQKIEWRSNAGGASHHHHHHGGASLAEAKVLANRELDKYGVSDYHKNLINNAKTVEGVKDLQAQVVESAKKARISEATDGLSDFLKSQTPAEDTVKSIELAEAKVLANRELDKYGVSDYYKNLINNAKTVEGVKALIDEILAALPGTFAHYMDPNLEALFQGPNSLPLFEPKGRVLLVDGHHLAYRTFHALKGLTTSRGEPVQAVYGFAKSLLKALKEDGDAVIVVFDAKAPSFRHEAYGGYKAGRAPTPEDFPRQLALIKELVDLLGLARLEVPGYEADDVLASLAKKAEKEGYEVRILTADKDLYQLLSDRIHVLHPEGYLITPAWLWEKYGLRPDQWADYRALTGDESDNLPGVKGIGEKTARKLLEEWGSLEALLKNLDRLKPAIREKILAHMDDLKLSWDLAKVRTDLPLEVDFAKRREPDRERLRAFLERLEFGSLLHEFGLLESPKALEEAPWPPPEGAFVGFVLSRKEPMWADLLALAAARGGRVHRAPEPYKALRDLKEARGLLAKDLSVLALREGLGLPPGDDPMLLAYLLDPSNTTPEGWPGRYGGEWTEEAGERAALSERLFANLWGRLEGEERLLWLYREVERPLSAVLAHMEATGVRLDVAYLRALSLEVAEEIARLEAEVFRLAGHPFNLNSRDQLERVLFDELGLPAIGKTEKTGKRSTSAAVLEALREAHPIVEKILQYRELTKLKSTYIDPLPDLIHPRTGRLHTRFNQTATATGRLSSSDPNLQNIPVRTPLGQRIRRAFIAEEGWLLVALDYSQIELRVLAHLSGDENLIRVFQEGRDIHTETASWMFGVPREAVDPLMRRAAKTINFGVLYGMSAHRLSQELAIPYEEAQAFIERYFQSFPKVRAWIEKTLEEGRRRGYVETLFGRRRYVPDLEARVKSVREAAERMAFNMPVQGTAADLMKLAMVKLFPRLEEMGARMLLQVHDELVLEAPKERAEAVARLAKEVMEGVYPLAVPLEVEVGIGEDWLSAKE"}, "B2": {"name": "Bio-HIS-ABS-Taq polymerase: Taq polymerase with N-terminal biotin-tag, His6 and albumin-binding protein fusion (SEQ ID NO: 1), expressed in E. coli (protein)", "chain": "MASSLRQILDSQKIEWRSNAGGASHHHHHHGGASLAEAKVLANRELDKYGVSDYHKNLINNAKTVEGVKDLQAQVVESAKKARISEATDGLSDFLKSQTPAEDTVKSIELAEAKVLANRELDKYGVSDYYKNLINNAKTVEGVKALIDEILAALPGTFAHYMDPNLEALFQGPNSLPLFEPKGRVLLVDGHHLAYRTFHALKGLTTSRGEPVQAVYGFAKSLLKALKEDGDAVIVVFDAKAPSFRHEAYGGYKAGRAPTPEDFPRQLALIKELVDLLGLARLEVPGYEADDVLASLAKKAEKEGYEVRILTADKDLYQLLSDRIHVLHPEGYLITPAWLWEKYGLRPDQWADYRALTGDESDNLPGVKGIGEKTARKLLEEWGSLEALLKNLDRLKPAIREKILAHMDDLKLSWDLAKVRTDLPLEVDFAKRREPDRERLRAFLERLEFGSLLHEFGLLESPKALEEAPWPPPEGAFVGFVLSRKEPMWADLLALAAARGGRVHRAPEPYKALRDLKEARGLLAKDLSVLALREGLGLPPGDDPMLLAYLLDPSNTTPEGWPGRYGGEWTEEAGERAALSERLFANLWGRLEGEERLLWLYREVERPLSAVLAHMEATGVRLDVAYLRALSLEVAEEIARLEAEVFRLAGHPFNLNSRDQLERVLFDELGLPAIGKTEKTGKRSTSAAVLEALREAHPIVEKILQYRELTKLKSTYIDPLPDLIHPRTGRLHTRFNQTATATGRLSSSDPNLQNIPVRTPLGQRIRRAFIAEEGWLLVALDYSQIELRVLAHLSGDENLIRVFQEGRDIHTETASWMFGVPREAVDPLMRRAAKTINFGVLYGMSAHRLSQELAIPYEEAQAFIERYFQSFPKVRAWIEKTLEEGRRRGYVETLFGRRRYVPDLEARVKSVREAAERMAFNMPVQGTAADLMKLAMVKLFPRLEEMGARMLLQVHDELVLEAPKERAEAVARLAKEVMEGVYPLAVPLEVEVGIGEDWLSAKE", "modifications": "N-terminal biotin; Synthetic polypeptide Bio-HIS-ABS-Taq polymerase"}},
  "key": {"Taq polymerase": {"molecular_target": "T1, Taq polymerase (Thermus aquaticus, UniProt P19821, A391P/R392G/V390W)", "T1 construct": "made in house; host or cells: E. coli Rosetta 2 (DE3), plasmid pET21-Biotin-His6-ABP-Taq", "experiment": "Polymerase activity in the presence of a polymerase inhibitor (amplification reaction at 45° C.)", "format": "biochemical", "experimental": "The assay was fixed at a final volume of 100 μl, and contained reaction components at the following final concentrations: oligonucleotide of SEQ ID NO: 8; 40 μM, dNTPs; 200 μM (each), APS; 1.6 mM, ATP sulfurylase; 0.12 Units, D-Luciferin; 0.3 mM, and Luciferase; 3 μg.\nFIG. 9 illustrates a luminescence assay that indicates the Taq polymerase activity. As shown in FIG. 9A and FIG. 9B, a time course is initially indicated with a lag phase, normally less than 2 minutes, followed by a linear increase in luminescence. The rate of luminescence increase (slope) defines the Taq polymerase activity.\nHot Start Taq DNA polymerase was obtained from New England BioLabs (NEB). Taq polymerase from New England BioLabs was tested as a control. An amplification reaction was performed to determine the activity of Bio-HIS-ABS-Taq in the presence of human serum albumin (HSA) at 45° C. and to compare the activity of Bio-HIS-ABS-Taq in the presence of HSA with Hot Start Taq polymerase (NEB). The ratio of Bio-HIS-ABS-Taq to HSA is 1:1. Table 2 illustrates the activity of Bio-HIS-ABS-Taq in the presence of HSA compared to the activity of Hot Start Taq Polymerase from NEB."}, "[1]": {"molecular_target": "human serum albumin (HSA), P02768"}, "[2]": {"experiment": "Protamine-based method optimization: Qubit protein remaining", "details": "protamine beads", "experimental": "For protamine attachment, NHS-activated Sepharose beads were utilized and coupling was performed in 0.1 M HEPES buffer (pH 7.0), with a protein to bead ratio of 25 mg of the protein to 1 ml bead suspension (0.5 ml packed), pre-washed with 1 mM HCl. Attachment of protamine to beads was completed by leaving the suspension on rotation overnight at 4° C., followed by washing with 0.1 M Tris (pH 8.5), to block any remaining NHS groups on beads. The procedure ensured overall coverage of Sepharose beads with the highly charged protamine molecules.\nDNA contaminant removal was accomplished using 15 μl of packed protamine-Sepharose beads per mg Taq polymerase, in 0.05 M sodium acetate, 0.2 M potassium chloride, pH 5.0. After leaving on rotation for 10 minutes, the suspension was centrifuged for 3 minutes at 1000×g, and the supernatant containing the enzyme was tested for DNA contamination, using a Qubit quantitation system.\npH Optimization: pH at 4.4, 4.75, 5.5, 6, and 7.7 were tested. Buffers used for adjusting the pH included acetate pH 4, acetate pH 5, MES pH 6, HEPES pH 7, and Tris pH 8. In each tube, 4 ul of the protamine bead slurry (protamine from Sigma-Aldrich) was used, 10 ul of buffer, 7 ul of 3.5 M KCl, and 140 ul of the buffer exchanged Bio-HIS-ABS-Taq polymerase. The initial concentrations of the polymerase and DNA contaminant were 0.478 mg/mL and 65.3 ng/mL, respectively.\nTable 4 illustrates the final concentrations of the Bio-HIS-ABS-Taq polymerase and DNA contaminant from a second set of experiment. The initial concentrations of the polymerase and DNA contaminant were 0.55 mg/mL and 65.3 ng/mL, respectively.\nTable 5 illustrates the final concentrations of the Bio-HIS-ABS-Taq polymerase and DNA contaminant from an experiment that modulates the salt concentration. The initial concentrations of the polymerase and DNA contaminant were 0.487 mg/mL and 82.9 ng/mL, respectively."}, "[3]": {"details": "relative to Control #2 (Taq, NEB)"}, "[4]": {"details": "KCl 0.145 M, initial polymerase 0.487 mg/mL"}, "[5]": {"details": "KCl 0.194 M, initial polymerase 0.487 mg/mL"}, "[6]": {"details": "KCl 0.242 M, initial polymerase 0.487 mg/mL"}, "[7]": {"details": "KCl 0.291 M, initial polymerase 0.487 mg/mL"}, "[8]": {"details": "KCl 0.340 M, initial polymerase 0.487 mg/mL"}, "[9]": {"details": "pH 4.4, initial polymerase 0.478 mg/mL"}, "[10]": {"details": "pH 4.75, initial polymerase 0.478 mg/mL"}, "[11]": {"details": "pH 5.5, initial polymerase 0.478 mg/mL"}, "[12]": {"details": "pH 6, initial polymerase 0.478 mg/mL"}, "[13]": {"details": "pH 7.7, initial polymerase 0.478 mg/mL"}, "[14]": {"details": "second set, pH 4.03, initial polymerase 0.55 mg/mL"}, "[15]": {"details": "second set, pH 4.22, initial polymerase 0.55 mg/mL"}, "[16]": {"details": "second set, pH 4.40, initial polymerase 0.55 mg/mL"}, "[17]": {"details": "second set, pH 4.80, initial polymerase 0.55 mg/mL"}},
  "data": [
    {"molecule": "Hot Start (NEB): Hot Start Taq DNA polymerase obtained from New England BioLabs (NEB)", "values": [
      {"measurement": "% activity", "setting": "Taq polymerase; [3]", "result": 91, "unit": "%"}
    ]},
    {"molecule": "Control #1 (Taq, NEB): Taq polymerase from New England BioLabs, tested as a control", "values": [
      {"measurement": "% activity", "setting": "Taq polymerase; Bio-HIS-ABS-Taq to HSA 1:1, relative to Control #1 (Taq, NEB)", "result": 100, "unit": "%"},
      {"measurement": "% activity", "setting": "Taq polymerase; [3]", "result": 100, "unit": "%"}
    ]},
    {"molecule": "B1", "values": [
      {"measurement": "% activity", "setting": "[1]", "result": 73, "unit": "%"}
    ]},
    {"molecule": "B2", "values": [
      {"measurement": "% protein remaining (comp to buffer exch)", "setting": "[2]; [4]", "result": 105, "unit": "%"},
      {"measurement": "Qubit protein remaining", "setting": "[2]; [4]", "result": 0.513, "unit": "mg/mL"},
      {"measurement": "% protein remaining (comp to buffer exch)", "setting": "[2]; [5]", "result": 101, "unit": "%"},
      {"measurement": "Qubit protein remaining", "setting": "[2]; [5]", "result": 0.495, "unit": "mg/mL"},
      {"measurement": "% protein remaining (comp to buffer exch)", "setting": "[2]; [6]", "result": 99.9, "unit": "%"},
      {"measurement": "Qubit protein remaining", "setting": "[2]; [6]", "result": 0.487, "unit": "mg/mL"},
      {"measurement": "% protein remaining (comp to buffer exch)", "setting": "[2]; [7]", "result": 70, "unit": "%"},
      {"measurement": "Qubit protein remaining", "setting": "[2]; [7]", "result": 0.339, "unit": "mg/mL"},
      {"measurement": "% protein remaining (comp to buffer exch)", "setting": "[2]; [8]", "result": 55, "unit": "%"},
      {"measurement": "Qubit protein remaining", "setting": "[2]; [8]", "result": 0.271, "unit": "mg/mL"},
      {"measurement": "% protein remaining (comp to buffer exch)", "setting": "[2]; [9]", "result": 97, "unit": "%"},
      {"measurement": "Qubit protein remaining", "setting": "[2]; [9]", "result": 0.462, "unit": "mg/mL"},
      {"measurement": "% protein remaining (comp to buffer exch)", "setting": "[2]; [10]", "result": 60, "unit": "%"},
      {"measurement": "Qubit protein remaining", "setting": "[2]; [10]", "result": 0.288, "unit": "mg/mL"},
      {"measurement": "% protein remaining (comp to buffer exch)", "setting": "[2]; [11]", "result": 61, "unit": "%"},
      {"measurement": "Qubit protein remaining", "setting": "[2]; [11]", "result": 0.292, "unit": "mg/mL"},
      {"measurement": "% protein remaining (comp to buffer exch)", "setting": "[2]; [12]", "result": 64, "unit": "%"},
      {"measurement": "Qubit protein remaining", "setting": "[2]; [12]", "result": 0.308, "unit": "mg/mL"},
      {"measurement": "% protein remaining (comp to buffer exch)", "setting": "[2]; [13]", "result": 75, "unit": "%"},
      {"measurement": "Qubit protein remaining", "setting": "[2]; [13]", "result": 0.360, "unit": "mg/mL"},
      {"measurement": "% protein remaining (comp to buffer exch)", "setting": "[2]; [14]", "result": 94, "unit": "%"},
      {"measurement": "Qubit protein remaining", "setting": "[2]; [14]", "result": 0.459, "unit": "mg/mL"},
      {"measurement": "% protein remaining (comp to buffer exch)", "setting": "[2]; [15]", "result": 95, "unit": "%"},
      {"measurement": "Qubit protein remaining", "setting": "[2]; [15]", "result": 0.486, "unit": "mg/mL"},
      {"measurement": "% protein remaining (comp to buffer exch)", "setting": "[2]; [16]", "result": 96, "unit": "%"},
      {"measurement": "Qubit protein remaining", "setting": "[2]; [16]", "result": 0.505, "unit": "mg/mL"},
      {"measurement": "% protein remaining (comp to buffer exch)", "setting": "[2]; [17]", "result": 93, "unit": "%"},
      {"measurement": "Qubit protein remaining", "setting": "[2]; [17]", "result": 0.497, "unit": "mg/mL"}
    ]}
  ]
}
